Laboratory results published in article PMC7065143, “Substrate Flexibility of the Flavin‐Dependent Dihydropyrrole Oxidases PigB and HapB Involved in Antibiotic Prodigiosin Biosynthesis” (Chembiochem, 2019).

Substrate: CCCCCC1CCN=C1C
Experiment: purified protein
Assay type: biochemical, Hahella chejuensis
Details: MES pH 6.0 10 mM, 30 °C, air, DMSO, racemic substrate 0.1–1.4 mM, HapB 0.457 μM

B1: HapB (Hahella chejuensis KCTC 2396) (protein)
chain: MESQDNSQYAGEAPVFPSKDFECNQGSFDDTDTSPPQHAGDYDVIVVGGGISGLSSAWKLRERKLLVLDQRDRFGGAARLEQRDGLLYASGASCFQLPTGHNEVSHLLQDLDLWNQWRSTAEDTLVIFDTKRLMKGLGEVTAALLKQPKELLKPAVWGLTANLLYSAMSGKPFISAEKKLGDPMFADLFQYLNRFTPDSGKHPAMPWREGCDWTREEMELFDSVSLHDLLFDPATRRSLPQDLIPRHRFGSLVKDAVETTLRVECLAIKDVSAYVGLHFLVGYLYRPLVTFPGGNGYIADRIRQRLMSTGSCKFKAGSRAYSITQNQEGVKVCFQQEGKNYYANANALIWAGAKHAAVSVVDGLPQQQKAAIAEIEHRDYAIAGVYLKKAALANYFGGYVIEGDIGGRYPNSWCRSGVCLAANWKDPSYAGGLGVLTLLKPISGAADQGKLGKADFRNLQQTAYGEVRDMLVATGHSPDLIEDIKLWRWPHGLVVSKVGQMKHDVFVNASQPVGAVFFANQDSVGMGNMESAIWAGCHAAEQVRRHFRSHSSVVSHIGDYAATQS
notes: full-length, N-terminal His6 tag (pQE80-L, pHDB1), E. coli BL21, Ni-NTA; soluble, lacks the N-terminal transmembrane domain of PigB
Q: With B1 as the protein, how does the Km read?
A: Its Km is 0.22 ± 0.08 mM.

Q: What about the kcat of the same protein?
A: The kcat was 13.7 ± 1.2 min⁻¹.
